Assay results: paper PMC3226441, “Generation of recombinant single-chain antibodies neutralizing the cytolytic activity of vaginolysin, the main virulence factor of Gardnerella vaginalis” (BMC Biotechnology, 2011)

Experiments:
[1] = target: T1, vaginolysin (VLY), recombinant (Gardnerella vaginalis); experiment: cell-based or functional assay
[2] = target: T1, vaginolysin (VLY), recombinant; experiment: ELISA; indirect ELISA; recombinant purified VLY (5 μg/ml, 50 mM Na-carbonate pH 9.5) coated on MaxiSorp plates; scFv 50 μg/ml to 20 ng/ml, 1 h at RT; detected by anti-His5 MAb and HRP-labelled anti-mouse IgG; apparent Kd = molar concentration at the mid-point of the titration curve; details: both partners purified

B1: anti-VLY scFv 23A2 (VL-VH) (scFv, V domains shown)
VH: QVQLEQSGAELVRSGASVKISCKASGYTFPSYNMHWVKQTPGQGLEWIGYIYPGNGVTNYNQKFKGKATLTADTSSSTAYMQISSLTSEDSAVYFCAREEGGNLLWGHFAMDYWGQGTSVTVSS
VL: DIVMTQTTLSLPVSLGDQASISCRSSQSLVHSNGNTYLHWYLQKPGQSPKLLIYKVSNRFSGVPDRFSGSGSGTDFTLKISRVEAEDLGVYFCSQSTHVPPTFGGGTKLEIR
notes: also called 23A2-derived scFv (variant VL-VH); source: E. coli BL21(DE3), from inclusion bodies, renatured, purified (Ni-NTA); not shown: His6, N-terminal, kept
- other [1]: 110 nM
- Kd [2]: 92 nM

B2: anti-VLY scFv 23A2 (VH-VL) (scFv, V domains shown)
VH: QVQLEQSGAELVRSGASVKISCKASGYTFPSYNMHWVKQTPGQGLEWIGYIYPGNGVTNYNQKFKGKATLTADTSSSTAYMQISSLTSEDSAVYFCAREEGGNLLWGHFAMDYWGQGTSVTVSS
VL: DIVMTQTTLSLPVSLGDQASISCRSSQSLVHSNGNTYLHWYLQKPGQSPKLLIYKVSNRFSGVPDRFSGSGSGTDFTLKISRVEAEDLGVYFCSQSTHVPPTFGGGTKLEIR
notes: also called 23A2-derived scFv (variant VH-VL); source: E. coli BL21(DE3), from inclusion bodies, renatured, purified (Ni-NTA); not shown: His6, N-terminal, kept
- other [1]: 150 nM
- Kd [2]: 98 nM

B3: anti-VLY scFv 9B4 (VL-VH) (scFv, V domains shown)
VH: QVQLEQSGPGLVAPSESLTITCTVSGFSLNSYGVHWVRQPPGKGLEWVGVMWAGGNTSYNSALMSRLSISKDNSKSQVFLKMNSLQTDDTAIYYCARARGAMDYWGQGTSVTVSS
VL: DIVMTQTTSHLSVSLGDRVTIACKASAHINNWLAWYQQKPGNAPSLLIAGATGLETGVPSRFSGSGSGKDFTLSISSLQTEDVATYYCQQYWDTPYTFGGGTKLEIR
notes: also called 9B4-derived scFv (variant VL-VH); source: E. coli BL21(DE3), from inclusion bodies, renatured, purified (Ni-NTA); not shown: His6, N-terminal, kept
- other [1]: 37 nM
- Kd [2]: 11 nM

B4: anti-VLY scFv 9B4 (VH-VL) (scFv, V domains shown)
VH: QVQLEQSGPGLVAPSESLTITCTVSGFSLNSYGVHWVRQPPGKGLEWVGVMWAGGNTSYNSALMSRLSISKDNSKSQVFLKMNSLQTDDTAIYYCARARGAMDYWGQGTSVTVSS
VL: DIVMTQTTSHLSVSLGDRVTIACKASAHINNWLAWYQQKPGNAPSLLIAGATGLETGVPSRFSGSGSGKDFTLSISSLQTEDVATYYCQQYWDTPYTFGGGTKLEIR
notes: also called 9B4-derived scFv (variant VH-VL); source: E. coli BL21(DE3), from inclusion bodies, renatured, purified (Ni-NTA); not shown: His6, N-terminal, kept
- other [1]: 51 nM
- Kd [2]: 15 nM
